This note sets out measurements from publication PMC7955049, “ADAR1 RNA editing enzyme regulates R-loop formation and genome stability at telomeres in cancer cells” (Nature Communications, 2021).

The experiment has as its target T1, FLAG-ADAR1p110-WT (UniProt P55265-5 1-931).
T1 construct: ADAR1 (ADAR, DRADA), nuclear p110 isoform, wild type; also called F-ADAR1p110-WT; F-ADAR1p110; source: HEK293T, stably expressing (p3XFLAG-CMV-10 plasmid co-transfected with pPUR), in lysate of formaldehyde-fixed cells
T1 sequence (looked up): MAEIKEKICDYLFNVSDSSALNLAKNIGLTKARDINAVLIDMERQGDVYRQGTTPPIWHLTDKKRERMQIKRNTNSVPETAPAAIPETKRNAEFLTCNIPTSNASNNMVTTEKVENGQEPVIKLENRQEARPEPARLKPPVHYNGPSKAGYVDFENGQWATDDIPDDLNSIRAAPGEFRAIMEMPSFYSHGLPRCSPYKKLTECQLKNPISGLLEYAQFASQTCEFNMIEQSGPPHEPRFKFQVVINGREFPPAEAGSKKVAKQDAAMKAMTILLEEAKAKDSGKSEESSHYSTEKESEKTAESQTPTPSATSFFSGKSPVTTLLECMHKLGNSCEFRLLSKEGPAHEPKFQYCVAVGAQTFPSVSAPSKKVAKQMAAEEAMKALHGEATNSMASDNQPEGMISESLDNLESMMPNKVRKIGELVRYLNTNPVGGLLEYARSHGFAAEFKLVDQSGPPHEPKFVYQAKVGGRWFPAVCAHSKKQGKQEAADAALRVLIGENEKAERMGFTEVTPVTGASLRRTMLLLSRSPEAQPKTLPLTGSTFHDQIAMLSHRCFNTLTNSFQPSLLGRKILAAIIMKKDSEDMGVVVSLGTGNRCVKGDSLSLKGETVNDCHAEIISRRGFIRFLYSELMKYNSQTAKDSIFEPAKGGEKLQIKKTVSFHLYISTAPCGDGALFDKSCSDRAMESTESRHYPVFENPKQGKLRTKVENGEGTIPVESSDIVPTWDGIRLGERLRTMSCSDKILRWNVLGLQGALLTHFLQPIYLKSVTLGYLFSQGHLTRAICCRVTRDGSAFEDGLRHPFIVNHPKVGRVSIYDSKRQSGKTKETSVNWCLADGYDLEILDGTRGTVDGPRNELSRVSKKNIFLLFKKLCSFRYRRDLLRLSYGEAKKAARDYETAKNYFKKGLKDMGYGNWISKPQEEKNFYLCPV
Description: co-IP; cells expressing the FLAG-tagged bait fixed with 0.3% formaldehyde, lysed in co-IP buffer (50 mM Tris-HCl pH 7.6, 150 mM NaCl, 1 mM EDTA, 1% NP-40, 0.5% sodium deoxycholate, 0.1% SDS, RNasin Plus) and sonicated; anti-FLAG M2 magnetic beads overnight at 4 °C; immunoblot; for Fig. 10c HEK293T cells unsynchronized or synchronized at M phase (thymidine-nocodazole). As to conditions: partners not purified. (In general: Immunoblotting shows a protein as a band on a membrane.)

Where only a bound is given, the exact number is not on record here.

B1: RNase H2A (natural protein, human (endogenous in HEK293T), UniProt O75792 1-299, looked up)
chain: MDLSELERDNTGRCRLSSPVPAVCRKEPCVLGVDEAGRGPVLGPMVYAICYCPLPRLADLEALKVADSKTLLESERERLFAKMEDTDFVGWALDVLSPNLISTSMLGRVKYNLNSLSHDTATGLIQYALDQGVNVTQVFVDTVGMPETYQARLQQSFPGIEVTVKAKADALYPVVSAASICAKVARDQAVKKWQFVEKLQDLDTDYGSGYPNDPKTKAWLKEHVEPVFGFPQFVRFSWRTAQTILEKEAEDVIWEDSASENQEGLRKITSYFLNEGSQARPRSSHRYFLERGLESATSL
notes: RNase H2 subunit A (RNaseH2A, AGS4), endogenous; also called RNase H2 subunit H2A; endogenous RNase H2A; source: endogenous, HEK293T lysate
Turning to B1, the “fold increase of the co-IP in M-phase synchronized against unsynchronized cells” value was > 3 fold.
